Reference: the RNAGym collection of RNA variant scans (doi:10.7554/elife.80360)

B1: Hammerhead Ribozyme (parent)
chain: ACCGGAUGUGCUUUCCGGUCUGAUGAGUCCGUGAGGACGAAACAG

Variants of: B1
Experiment: self-cleavage, relative activity (ratio to wild type); higher = more cleavage; co-transcriptional

Variant	self-cleavage
ACCGGAUGUGCUUUCCGGUCUGAUGAGGCCAUGAGGACGAAACAG	0.85
ACCGGAUGUGCUUUCCGGUCUGAUGAGGCCUUGAGGACGAAACAG	0.932
ACCGGAUGUGCUUUCCGGUCUGAUGAGGCCCUGAGGACGAAACAG	0.987
ACCGGAUGUGCUUUCCGGUCUGAUGAGGCCGUGAGGACGAAAUAG	0.3
ACCGGAUGUGCUUUCCGGUCUGAUGAGGCCGUGAGGACGAAAGAG	0.274
ACCGGAUGUGCUUUCCGGUCUGAUGAGGCCGUCAGGACGAAACAG	1.2
ACCGGAUGUGCUUUCCGGUCUGAUGAGGCCGUAAGGACGAAACAG	1.02
ACCGGAUGUGCUUUCCGGUCUGAUGAGGCCGUUAGGACGAAACAG	0.972
ACCGGAUGUGCUUUCCGGUCUGAUGAGUGCGUGAGGACGAAACCG	0.35
ACCGGAUGUGCUUUCCGGUCUGAUGAGUGCGUGAGGACGAAACUG	0.398
ACCGGAUGUGCUUUCCGGUCUGAUGAGUGCGUGAGGACGAAACGG	0.82
ACCGGAUGUGCUUUCCGGUCUGAUGAGUGCGUGAGGACCAAACAG	0.317
ACCGGAUGUGCUUUCCGGUCUGAUGAGUGCGUGAGGACAAAACAG	0.324
ACCGGAUGUGCUUUCCGGUCUGAUGAGUACGUGAGGACGACACAG	0.355
ACCGGAUGUGCUUUCCGGUCUGAUGAGUACGUGAGGACGAUACAG	0.301
ACCGGAUGUGCUUUCCGGUCUGAUGAGUACGUGAGGACGAGACAG	0.339
ACCGGAUGUGCUUUCCGGUCUGAUGAGUGCGUGAUGACGAAACAG	0.665
ACCGGAUGUGCUUUCCGGUCUGAUGAGUGCGUGAAGACGAAACAG	0.637
ACCGGAUGUGCUUUCCGGUCUGAUGAGUGCGUGACGACGAAACAG	0.602
ACCGGAUGUGCUUUCCGGUCUGAUGAGUGCGUGAGAACGAAACAG	0.66
ACCGGAUGUGCUUUCCGGUCUGAUGAGUGCGUGAGUACGAAACAG	1.01
ACCGGAUGUGCUUUCCGGUCUGAUGAGUGCGUGAGCACGAAACAG	0.799
ACCGGAUGUGCUUUCCGGUCUGAUGAGUACGUGAGGACAAAACAG	0.356

Variant	self-cleavage
ACCGGAUGUGCUUUCCGGUCUGAUGAGUACGUGAGGACUAAACAG	0.387
ACCGGAUGUGCUUUCCGGUCUGAUGAGUACGUGAGGACCAAACAG	0.326
ACCGGAUGUGCUUUCCGGUCUGAUGAGUGCGUUAGGACGAAACAG	0.664
ACCGGAUGUGCUUUCCGGUCUGAUGAGUGCGUAAGGACGAAACAG	0.788
ACCGGAUGUGCUUUCCGGUCUGAUGAGUGCGUCAGGACGAAACAG	0.654
ACCGGAUGUGCUUUCCGGUCUGAUGAGUACGUGCGGACGAAACAG	0.494
ACCGGAUGUGCUUUCCGGUCUGAUGAGUACGUGUGGACGAAACAG	0.563
ACCGGAUGUGCUUUCCGGUCUGAUGAGUACGUGGGGACGAAACAG	0.518
ACCGGAUGUGCUUUCCGGUCUGAUGAGUGCGUGUGGACGAAACAG	0.748
ACCGGAUGUGCUUUCCGGUCUGAUGAGUGCGUGCGGACGAAACAG	0.56
ACCGGAUGUGCUUUCCGGUCUGAUGAGUGCGUGGGGACGAAACAG	0.446
ACCGGAUGUGCUUUCCGGUCUGAUGAGUACGUGAGGACGAAAAAG	0.345
ACCGGAUGUGCUUUCCGGUCUGAUGAGUACGUGAGGACGAAAUAG	0.396
ACCGGAUGUGCUUUCCGGUCUGAUGAGUACGUGAGGACGAAAGAG	0.348
ACCGGAUGUGCUUUCCGGUCUGAUGAGUACGUGAGGACGAAACAU	0.35
ACCGGAUGUGCUUUCCGGUCUGAUGAGUACGUGAGGACGAAACAC	0.388
ACCGGAUGUGCUUUCCGGUCUGAUGAGUACGUGAGGACGAAACAA	0.372
ACCGGAUGUGCUUUCCGGUCUGAUGAGGCCGUGAGAACGAAACAG	0.573
ACCGGAUGUGCUUUCCGGUCUGAUGAGGCCGUGAGCACGAAACAG	0.317
ACCGGAUGUGCUUUCCGGUCUGAUGAGGCCGUGAGUACGAAACAG	0.35
ACCGGAUGUGCUUUCCGGUCUGAUGAGUACGUGACGACGAAACAG	0.526
ACCGGAUGUGCUUUCCGGUCUGAUGAGUACGUGAAGACGAAACAG	0.618
ACCGGAUGUGCUUUCCGGUCUGAUGAGUACGUGAUGACGAAACAG	0.727

Variant	self-cleavage
ACCGGAUGUGCUUUCCGGUCUGAUGAGUGCGUGAGGACGAAAUAG	0.328
ACCGGAUGUGCUUUCCGGUCUGAUGAGUGCGUGAGGACGAAAGAG	0.275
ACCGGAUGUGCUUUCCGGUCUGAUGAGUGCGUGAGGACGAAAAAG	0.376
ACCGGAUGUGCUUUCCGGUCUGAUGAGUAAGUGAGGACGAAACAG	0.442
ACCGGAUGUGCUUUCCGGUCUGAUGAGUAUGUGAGGACGAAACAG	0.41
ACCGGAUGUGCUUUCCGGUCUGAUGAGUAGGUGAGGACGAAACAG	0.372
ACCGGAUGUGCUUUCCGGUCUGAUGAGUGGGUGAGGACGAAACAG	0.476
ACCGGAUGUGCUUUCCGGUCUGAUGAGUGAGUGAGGACGAAACAG	0.432
ACCGGAUGUGCUUUCCGGUCUGAUGAGUGUGUGAGGACGAAACAG	0.693
ACCGGAUGUGCUUUCCGGUCUGAUGAGUACGUUAGGACGAAACAG	0.674
ACCGGAUGUGCUUUCCGGUCUGAUGAGUACGUAAGGACGAAACAG	0.816
ACCGGAUGUGCUUUCCGGUCUGAUGAGUACGUCAGGACGAAACAG	0.442
ACCGGAUGUGCUUUCCGGUCUGAUGAGGCCGCGAGGACGAAACAG	0.664
ACCGGAUGUGCUUUCCGGUCUGAUGAGGCCGAGAGGACGAAACAG	0.83
ACCGGAUGUGCUUUCCGGUCUGAUGAGGCCGGGAGGACGAAACAG	0.449
ACCGGAUGUGCUUUCCGGUCUGAUGAGUACGUGAGGCCGAAACAG	0.755
ACCGGAUGUGCUUUCCGGUCUGAUGAGUACGUGAGGUCGAAACAG	0.703
ACCGGAUGUGCUUUCCGGUCUGAUGAGUACGUGAGGGCGAAACAG	0.692
ACCGGAUGUGCUUUCCGGUCUGAUGAGGCCGUGACGACGAAACAG	0.562
ACCGGAUGUGCUUUCCGGUCUGAUGAGGCCGUGAUGACGAAACAG	0.58
ACCGGAUGUGCUUUCCGGUCUGAUGAGGCCGUGAAGACGAAACAG	0.384
ACCGGAUGUGCUUUCCGGUCUGAUGAGUACGUGAGGACGGAACAG	0.294
ACCGGAUGUGCUUUCCGGUCUGAUGAGUACGUGAGGACGCAACAG	0.354

Variant	self-cleavage
ACCGGAUGUGCUUUCCGGUCUGAUGAGUACGUGAGGACGUAACAG	0.314
ACCGGAUGUGCUUUCCGGUCUGAUGAGUACGUGAGGACGAAACUG	0.407
ACCGGAUGUGCUUUCCGGUCUGAUGAGUACGUGAGGACGAAACCG	0.323
ACCGGAUGUGCUUUCCGGUCUGAUGAGUACGUGAGGACGAAACGG	0.765
ACCGGAUGUGCUUUCCGGUCUGAUGAGUACGUGAGUACGAAACAG	0.624
ACCGGAUGUGCUUUCCGGUCUGAUGAGUACGUGAGAACGAAACAG	0.665
ACCGGAUGUGCUUUCCGGUCUGAUGAGUACGUGAGCACGAAACAG	0.718
ACCGGAUGUGCUUUCCGGUCUGAUGAGUGCUUGAGGACGAAACAG	0.777
ACCGGAUGUGCUUUCCGGUCUGAUGAGUGCCUGAGGACGAAACAG	0.74
ACCGGAUGUGCUUUCCGGUCUGAUGAGUGCAUGAGGACGAAACAG	1.01
ACCGGAUGUGCUUUCCGGUCUGAUGAGUACGUGAGGACGAAUCAG	0.374
ACCGGAUGUGCUUUCCGGUCUGAUGAGUACGUGAGGACGAAGCAG	0.265
ACCGGAUGUGCUUUCCGGUCUGAUGAGUACGUGAGGACGAACCAG	0.304
ACCGGAUGUGCUUUCCGGUCUGAUGAGUACCUGAGGACGAAACAG	0.683
ACCGGAUGUGCUUUCCGGUCUGAUGAGUACUUGAGGACGAAACAG	0.611
ACCGGAUGUGCUUUCCGGUCUGAUGAGUACAUGAGGACGAAACAG	0.606
ACCGGAUGUGCUUUCCGGUCUGAUGAGUGCGUGAGGAUGAAACAG	0.703
ACCGGAUGUGCUUUCCGGUCUGAUGAGUGCGUGAGGAGGAAACAG	0.424
ACCGGAUGUGCUUUCCGGUCUGAUGAGUGCGUGAGGAAGAAACAG	0.458
ACCGGAUGUGCUUUCCGGUCUGAUGAGUGCGUGAGGACGAAGCAG	0.269
ACCGGAUGUGCUUUCCGGUCUGAUGAGUGCGUGAGGACGAACCAG	0.407
ACCGGAUGUGCUUUCCGGUCUGAUGAGUGCGUGAGGACGAAUCAG	0.394
ACCGGAUGUGCUUUCCGGUCUGAUGAGUACGUGAGGAUGAAACAG	0.652

Variant	self-cleavage
ACCGGAUGUGCUUUCCGGUCUGAUGAGUACGUGAGGAGGAAACAG	0.281
ACCGGAUGUGCUUUCCGGUCUGAUGAGUACGUGAGGAAGAAACAG	0.426
ACCGGAUGUGCUUUCCGGUCUGAUGAGUGCGUGAGGACGAAACAG	0.766
ACCGGAUGUGCUUUCCGGUCUGAUGAGUACGUGAGGACGAAACAG	0.708
ACCGGAUGUGCUUUCCGGUCUGAUGAGUGCGUGAGGACGCAACAG	0.288
ACCGGAUGUGCUUUCCGGUCUGAUGAGUGCGUGAGGACGGAACAG	0.238
ACCGGAUGUGCUUUCCGGUCUGAUGAGUGCGUGAGGACGUAACAG	0.325
ACCGGAUGUGCUUUCCGGUCUGAUGAGGCCGUGAGGACAAAACAG	0.411
ACCGGAUGUGCUUUCCGGUCUGAUGAGGCCGUGAGGACCAAACAG	0.323
ACCGGAUGUGCUUUCCGGUCUGAUGAGGCCGUGAGGACUAAACAG	0.32
ACCGGAUGUGCUUUCCGGUCUGAUGAGUGCGUGAGGGCGAAACAG	0.414
ACCGGAUGUGCUUUCCGGUCUGAUGAGUGCGUGAGGCCGAAACAG	0.759
ACCGGAUGUGCUUUCCGGUCUGAUGAGUGCGUGAGGUCGAAACAG	0.587
ACCGGAUGUGCUUUCCGGUCUGAUGAGGCCGUGAGGACGAAACAA	0.418
ACCGGAUGUGCUUUCCGGUCUGAUGAGGCCGUGAGGACGAAACAU	0.527
ACCGGAUGUGCUUUCCGGUCUGAUGAGGCCGUGAGGACGAAACAC	0.412
ACCGGAUGUGCUUUCCGGUCUGAUGAGUACGCGAGGACGAAACAG	0.866
ACCGGAUGUGCUUUCCGGUCUGAUGAGUACGGGAGGACGAAACAG	0.504
ACCGGAUGUGCUUUCCGGUCUGAUGAGUACGAGAGGACGAAACAG	0.643
ACCGGAUGUGCUUUCCGGUCUGAUGAGUGCGUGAGGACGACACAG	0.269
ACCGGAUGUGCUUUCCGGUCUGAUGAGUGCGUGAGGACGAUACAG	0.29
ACCGGAUGUGCUUUCCGGUCUGAUGAGUGCGUGAGGACGAGACAG	0.338
